± gives the uncertainty stated by the source.
Assay: protein stability index of a GFP-peptide fusion (yeast GPS) (PSI 1-4); higher = more stable; sorted into four equal gates, so the index is relative within each strain
In short: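 Tiled 17-residue peptides from yeast proteins were fused downstream of GFP on a plasmid that also expresses Cherry, and the pooled library was carried in yeast. Mid-log cultures grown in leucine-free medium were sorted into four equal gates by GFP/Cherry fluorescence ratio. Plasmids from each gate were PCR-amplified and Illumina-sequenced, and reads were assigned to strains by barcodes. Each peptide's protein stability index is the sum, over gates, of the gate's read frequency multiplied by its gate number.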

Sequence	protein stability index (doa10∆)	protein stability index (pdr5∆)	protein stability index (san1∆)	protein stability index (ubr1∆)
DSMKYTISSLFVQLCEM [RPC82]	1.86 ± 0.044	2.26 ± 0.042	2.15 ± 0.062	2.17 ± 0.043
DSNKTLLHNHLKSIESL [SMC2]	1.87 ± 0.089	2.44 ± 0.095	1.49 ± 0.22	2.78 ± 0.11
DSNTTEILTSVDVLGTH [SIR4]	2.92 ± 0.063	2.96 ± 0.058	2.93 ± 0.06	3.04 ± 0.036
DSSSQCIVDFTNPKLKS [YMR129W/POM152]	2.2 ± 0.053	2.43 ± 0.058	2.33 ± 0.072	1.96 ± 0.044
DSSYQDIFAVNLEESSK [RET1]	–	2.09 ± 0.25	2.29 ± 0.26	–
DSVFEQNEMIDAIAVTK [RPL3]	2.57 ± 0.095	2.8 ± 0.12	2.31 ± 0.1	2.51 ± 0.042
DTCAVSFDAVSDSIELL [YJR042W/NUP85]	3.04 ± 0.12	3.46 ± 0.1	2.51 ± 0.25	2.65 ± 0.15
DTFDGSDLRVLSGSISE [FAS1]	1.6 ± 0.079	2.34 ± 0.067	1.49 ± 0.14	1.79 ± 0.059
DTIMENPEPNKKNIQKA [IRR1]	2.36 ± 0.25	2.84 ± 0.13	3.18 ± 0.2	2.99 ± 0.11
DTKIDQVNGNIRKVSND [SMC3]	3.47 ± 0.16	3.07 ± 0.24	3 ± 0.12	3.27 ± 0.13
DTKPFLNKDSTNEFVGS [NUT1]	3.09 ± 0.064	2.79 ± 0.054	2.44 ± 0.062	3.04 ± 0.039
DTSGLKISNSEFFNPEI [SIN4]	3.21 ± 0.096	3.44 ± 0.12	3.1 ± 0.058	3.29 ± 0.074
DTSNWELSDSWRAHDSS [YGL100W/SEH1]	3.29 ± 0.068	3.37 ± 0.058	3.4 ± 0.036	3.31 ± 0.037
DTTANNGKVQYFLRRQY [YJL039C/NUP192]	2.71 ± 0.095	2.65 ± 0.14	2.83 ± 0.15	2.98 ± 0.091
DTVDRLIIKYQKYWESM [GAL11]	2.73 ± 0.053	2.83 ± 0.065	2.62 ± 0.053	3.02 ± 0.062
DTVEEKKEEKLNIGKNF [SIR4]	2.42 ± 0.16	2.71 ± 0.25	3.34 ± 0.2	2.42 ± 0.13
DTYKRFKYLLGVTDLFR [ISW2]	1.85 ± 0.045	1.37 ± 0.052	1.21 ± 0.11	1.34 ± 0.075
DTYPYLTGEWSTKFDYP [FAS1]	3.19 ± 0.073	2.96 ± 0.079	2.85 ± 0.063	2.94 ± 0.057
DVDQHGNDNNSDSNANA [SWI3]	3.01 ± 0.045	3.25 ± 0.046	3.245 ± 0.028	3.249 ± 0.028
DVFNLLPNLGTPDDDEI [RPN8]	1.96 ± 0.071	2.02 ± 0.079	1.43 ± 0.12	1.43 ± 0.056
DVKISNDFFDNGDNLYG [RPN4]	2.39 ± 0.086	2.93 ± 0.063	2.67 ± 0.12	1.69 ± 0.057
DVKLVLASNFDNFDYFN [MED1]	3.17 ± 0.065	3.19 ± 0.068	3.2 ± 0.07	3.15 ± 0.056
DVKSSLSKVFSDVLFEF [YJL039C/NUP192]	2.82 ± 0.12	3.28 ± 0.071	2.58 ± 0.1	2.89 ± 0.053
DVLKENNDADKGRSYAY [RIP1]	3.48 ± 0.13	3.5 ± 0.15	3.25 ± 0.092	3.03 ± 0.26
DVNDVLTKYIRSKNLIF [GRR1]	2.68 ± 0.066	2.78 ± 0.08	2.19 ± 0.083	2.68 ± 0.043
DVTHTLGMLDDNKMDSV [SMC4]	3.15 ± 0.095	3.03 ± 0.082	3.21 ± 0.049	3.27 ± 0.097
DVYSPEKGSWEQLSPQD [BRR2]	3.15 ± 0.15	–	2.47 ± 0.24	3.34 ± 0.25

Sequence	protein stability index (doa10∆)	protein stability index (pdr5∆)	protein stability index (san1∆)	protein stability index (ubr1∆)
DWPTYVDQNPLTMHKII [SRB8]	2.45 ± 0.09	2.76 ± 0.08	2.69 ± 0.074	2.91 ± 0.07
DYCRILSDIETAVNGID [YGL172W/NUP49]	3.28 ± 0.16	3.15 ± 0.13	2.75 ± 0.17	2.71 ± 0.1
DYKGAKLNVVGWFHSHP [RRI1]	2.81 ± 0.097	2.49 ± 0.1	2.38 ± 0.18	2.59 ± 0.061
DYKTAFSYFFESFESYH [RPN6]	2.37 ± 0.058	2.77 ± 0.065	2.59 ± 0.067	2.55 ± 0.033
DYSRKQLGYGKFLILNE [NUT1]	2.97 ± 0.2	2.31 ± 0.14	–	3.18 ± 0.22
DYVTNPDTKISSAAILG [RPN1]	2.42 ± 0.087	2.43 ± 0.1	2.21 ± 0.17	1.91 ± 0.1
DYVVAPGVNREINSEMC [GRR1]	–	3.18 ± 0.2	3.32 ± 0.082	3.13 ± 0.064
EAARICANKYMTTVSGR [RPL10]	2.24 ± 0.24	2.59 ± 0.14	1.75 ± 0.2	1.93 ± 0.1
EAFIASGITDPYEMYKY [FAS2]	1.81 ± 0.038	2.06 ± 0.05	1.73 ± 0.068	2.14 ± 0.045
EALIEFIYDTEKNGGLG [FAS2]	2.52 ± 0.079	2.63 ± 0.076	2.67 ± 0.054	2.17 ± 0.055
EARLPSQVVWIRRLRVL [RPL19A]	1.31 ± 0.072	1.63 ± 0.078	1.33 ± 0.11	1.44 ± 0.075
EATREVFGISKTSSGSY [ITC1]	3.33 ± 0.09	3.09 ± 0.077	3.23 ± 0.068	3.29 ± 0.041
EDAIHIALLTLKESVEG [PRE8]	2.94 ± 0.092	2.87 ± 0.085	2.94 ± 0.069	2.92 ± 0.076
EDEDDGESEKSSDVDMD [RPC53]	3.28 ± 0.11	3.66 ± 0.14	3.29 ± 0.19	3.32 ± 0.094
EDEEEFSIFNYFKMFPA [RPC34]	3.27 ± 0.19	2.2 ± 0.1	–	2.46 ± 0.2
EDLHEKNDSAEVRQETQ [NUT1]	3.48 ± 0.1	3.28 ± 0.2	3.13 ± 0.083	3.53 ± 0.075
EDLKNFIFQIIEITNSN [SRB8]	1.96 ± 0.075	2.1 ± 0.056	2.23 ± 0.086	1.79 ± 0.05
EDNKYAIAGNSTTNSDV [RGR1]	2.89 ± 0.13	2.92 ± 0.12	2.99 ± 0.06	2.93 ± 0.08
EDQKVVDKALIAEIKKT [RPL6A]	3.37 ± 0.13	3.48 ± 0.084	3.19 ± 0.11	3.61 ± 0.072
EDRNESVNIAFAISMGY [ECM29]	3.02 ± 0.12	2.89 ± 0.074	2.88 ± 0.055	2.82 ± 0.07
EDSMIMNQSSIDRGLFR [RPB2]	2.55 ± 0.08	2.61 ± 0.093	2.62 ± 0.098	2.91 ± 0.065
EEAYDNPHDTLNRIKKY [PRP8]	3.42 ± 0.13	3.2 ± 0.093	2.27 ± 0.17	3.4 ± 0.085
EEEDSILSLEQSSRVVS [YCS4]	3.11 ± 0.12	3.24 ± 0.08	3.19 ± 0.062	3.06 ± 0.086
EEEKSVDASPNDVTRRT [CSL4]	3.25 ± 0.08	3.33 ± 0.085	3.27 ± 0.05	3.44 ± 0.065
EEEQDTGESEESSSEDD [IRR1]	3.23 ± 0.2	3.44 ± 0.23	3.35 ± 0.11	3.43 ± 0.06
EEHHEEEPSRVDPEQEA [RPT4]	3.09 ± 0.082	3.28 ± 0.094	3.14 ± 0.052	3.26 ± 0.064

— the supplement of paper PMC9732359
